The source of these data is publication PMC10273302 (Science (New York, N.Y.), 2023).

Sequences and labels used below:
T1: influenza A minimal peptide VPNGTLVKTITNDQI (spotted for dot blot) (Influenza A virus (H3 hemagglutinin …))
T1 chain: VPNGTLVKTITNDQI

B1: clonotype286 (10x_4) (antibody, V domains shown)
VH: EVQLVQSGPEVKEPGESLKISCKASGYNFAKYWIAWVRQMPGKGLEWMGIVYPGDSDTRYSPSFQGQVTISADKSLTTAYLQWSSLKASDTAIYYCARGVQDCDSRNCYAYNWFDPWGQGTLVTVSS
VL: DIVMTQSPESLAVSLGERATINCKSSHSVFFSSNNKNYLSWYQQKPGQPPKLLIYWASTRQSGVPDRFSGGGSGTDFTLTISSLQAEDVAVYYCQQYYYSPYTFGQGTKLEIK
B2: clonotype473 (10x_4) (antibody, V domains shown)
VH: EVQLVQSGAEVKKPGESLRISCKGSGYTFSTHWIGWVRHMPGKGLEWVGVIYPDDSDTRLSPSFQGQVTISADKSTTTAFLWWSSLKASDTATYYCARGVQSCIRNTCSFYGWFDRWGQGTRVTVSS
VL: DIVMTQSPDSLAVSLGERATIYCKSSHSLLYSSNNYNYLAWYQQKPGQPPKLLIYWASTRESGVPDRFSGSGSGTDFTLTISSLQAADVAVYYCQQYFYSPYTFGQGTKVEIR
B3: clonotype3 (10x_4) (antibody, V domains shown)
VH: EVQLVQSGAEVKKPGESLKISCKVSGYSFTTYWIAWVRQMPGKGLEWMGIIYPGDSDTRYSPSFQGQVTISADKSVTTAYLQWGSVKASDTAMYYCARPPHFIDAGGRQTPGYFDLWGQGTLVTVSS
VL: DIVMTQSPDSLAVSLGERATINCKSSQTVLFRSNNKNYLAWYQQKPGQPPKLLIYWASTRQSGVPDRFSGSGSGTDFTLTISSLQAEDVALYFCQQYHDSPYTFGQGTKVEIK
B4: clonotype4582 (Quake) (antibody, V domains shown)
VH: EVQLVQSGAEVKKPGESLKISCKASGYTFTNYWIAWVRQMPGKGLEWMGIIFPSDSDTRYSPSFQGQVTISADKSVSTAYLQWSSLKASDTAMYYCARGAATILRGVVTSYNWFDSWGQGTLVTVSS
VL: DVVMTQSPDSLAASLGERATINCTSSHNILYNSNNNNYLAWYQQKPGQPPKLLIYWASTRESGVPDRFSGSGSGTDFTLTISSLQAEDVAVYSCQQYFSTPYTFGQGTKLEIK
B5: clonotype2760 (Quake) (antibody, V domains shown)
VH: EVQLVQSEIEVRKPGESLKISCKGSGYNFATHWIGWVRQMPGKGLEWMGTIYPLDSDTRYSPYFQGQVTISADKSINTAYLQWNSLKASDTAMYYCARVPEGSVVAGEVHFYYYMDVWGKGTAVTVSS
VL: DIVMTQSPDSLAVSLGERATINCKSSQSLLYSSNNRNYLAWYQHKPGQPPKLLMYWASTRESGVPDRFSGGGSETDFTLTISSLQAEDVAMYYCQQYYFTPYTFGQGTKLEIK
B6: flu_c645 (antibody, V domains shown)
VH: EVQLVQSGAEVKKPGESLKISCQASGYIFVNYWVGWLRQAPGKGLEWIGIIFPGDSDTTYSPSFQGQVTISAAKSINTVYLQWNSLKASDTAMYYCARAPVPGMSGWFDPWGQGTLVTVSS
VL: DIVMTQSPDSLAVSLGGGATIKCKSSHSLLYSSNSKNYLSWYQQKPGQPPKLLFYWASTRESGVPDRFSGSGSGTDFTLTIDSLQAEDLAVYFCQQYFYTPYTFGQGTKLEIN
B7: flu_c326 (antibody, V domains shown)
VH: EVQLVQSGAEVKKPGESLKISCRTSGFTFTRHWIAWVRQMPGKGLEWMGIIYPGDSDVTYNPSFQGQVTISADKSITTAYLQWSSLQASDTAIYFCAKPYNYCNTTTCYTRGYFDFWGRGTLVTVSS
VL: DIVMTQSPDSLAVSLGERATINCKSSQSLLYRSDNKNYLAWYQQNPGQPPKLLIYWASIRESGVSDRFSGSGSGTDFTLTINSLQAEDVAVYYCQQYYFTPYTFGQGTKLEIK
notes: recombinant human IgG
B8: flu_c357 (antibody, V domains shown)
VH: EVQLVQSGAEVKKPGESLKISCKTSGFKFTSHWIAWVRQMPGKGLEWMGIIYPGDSDTRYNPSFEGQVTVSADKSINTAYLQWSSLKASDTAMYYCARLPHRESGNVSTTWGWFDPWGQGTLVTISS
VL: DIVLTQSPDSLAVSLGERATINCKSSHNVLYISNSKNYLAWYQQKPGQPPKLLIYWASTRESGVPDRFSGSGSGTDFTLTISSLQPEDVAVYYCQQYFSTPYTFGQGTRLEIK
notes: recombinant human IgG

For the first assay, the target named is T1, influenza A minimal peptide ….
Assay: not given
Conditions: not given
In the case of B1, the binding result is “binds”.

As for B2, the binding result is “binds”.

For B3, the binding result is recorded as “binds”.

In the case of B4, the binding result is listed as “binds”.

With B5, the binding result was “binds”.

Regarding B6, the binding result is “binds”.

A further assay has as its target T2, influenza A H3 hemagglutinin ectodomain trimer, A/Aichi/02/1968 (Influenza A virus A/Aichi/2/1968 (H3N2, …, UniProt P03437)).
T2 construct: source: Expi293, transient transfection, purified (Ni-NTA, SEC)
In words: ELISA. To be noted: both partners purified. Background: ELISA stands for enzyme-linked immunosorbent assay.
Consider B7, for which the binding result is given as “binds”.

B8: the binding result is “binds”.
